Earlier results, collected in US20030166570A1, “Peptide and its use in the treatment of hyperpigmentation conditions” (priority 2001, published 2003).
Ends that are not written are not given here.

molecular target: MC-1 receptor (Homo sapiens, UniProt Q01726); conditions: rank order; physiologic range for signal transduction
Sequence (Q01726 whole entry): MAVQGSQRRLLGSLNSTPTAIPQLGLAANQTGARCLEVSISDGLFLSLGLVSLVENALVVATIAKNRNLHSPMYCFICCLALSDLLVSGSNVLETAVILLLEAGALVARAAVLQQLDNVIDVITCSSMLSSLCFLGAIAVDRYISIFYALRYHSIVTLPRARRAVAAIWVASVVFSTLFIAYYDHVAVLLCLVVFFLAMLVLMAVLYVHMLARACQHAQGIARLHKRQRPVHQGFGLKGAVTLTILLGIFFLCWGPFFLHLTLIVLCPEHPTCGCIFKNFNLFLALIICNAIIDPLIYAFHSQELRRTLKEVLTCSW

Row | Substance | relative affinities for the MC-1 receptor and stimulation of cAMP
1 | ACTH 1-10: peptide fragment defined by residues 1-10 of ACTH | no activity
2 | ACTH: 39-mer polypeptide hormone expressed in skin melanocytes and keratinocytes, derived from POMC (SYSMEHFRWGKPVGKKRRPVKVYPNGAEDESAEAFPLEF-NH2; UniProt P01189 138-176, looked up) | ACTH 1-17=α-MSH>ACTH
3 | Ac-Ser^1-Tyr^2-Ser^3-Met^4-Glu^5-His^6-Phe^7-Arg^8-Trp^9-Gly^10-Lys^11-Pro^12-Val^13-NH2 [α-MSH] | ACTH 1-17=α-MSH>ACTH
